From US20250251406A1

Columns and labels:
[1] = molecular target: IL-17A/A dimer (Homo sapiens (Human)) (UniProt Q16552); assay: Alphascreen (protein-protein interaction assay); inhibition of IL17AA with IL-17RA
[2] = molecular target: IL-17A/F dimer (Homo sapiens (Human)) (UniProt Q16552); assay: Alphascreen (protein-protein interaction assay); inhibition of IL17AF with IL-17RA
[3] = molecular target: IL-17A/F dimer (Homo sapiens (Human)) (UniProt Q16552)
[4] = molecular target: IL-17A/A dimer (Homo sapiens (Human)) (UniProt Q16552)
[5] = molecular target: IL-17F/F dimer (Homo sapiens (Human)) (UniProt Q96PD4); assay: Alphascreen (protein-protein interaction assay); inhibition of IL17FF with IL-17RC
Sequence of UniProt Q96PD4 (Q96PD4 31-163 limits assumed): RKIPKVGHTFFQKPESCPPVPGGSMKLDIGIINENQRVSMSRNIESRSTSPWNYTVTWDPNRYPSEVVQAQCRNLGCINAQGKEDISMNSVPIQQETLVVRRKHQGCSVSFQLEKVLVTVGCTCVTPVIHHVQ

## sonelokimab (VHH)
[1]
  IC50: 39 pM
[2]
  IC50: 66 pM
[3]
  % inhibition of CCL20 expression (TNF + IL17A/F stimulation) in keratinocytes, SLK 0.1 µg/mL: -75%
  % inhibition of CCL20 expression (TNF + IL17A/F stimulation) in keratinocytes, SLK 1 µg/mL: -53%
  % inhibition of CXCL8 expression (TNF + IL17A/F stimulation) in keratinocytes, SLK 0.1 µg/mL: -61%
  % inhibition of CXCL8 expression (TNF + IL17A/F stimulation) in keratinocytes, SLK 1 µg/mL: -68%
[4]
  % inhibition of CCL20 expression (TNF + IL17A/A stimulation) in keratinocytes, SLK 0.1 µg/mL: -66%
  % inhibition of CCL20 expression (TNF + IL17A/A stimulation) in keratinocytes, SLK 1 µg/mL: -66%
  % inhibition of CXCL8 expression (TNF + IL17A/A stimulation) in keratinocytes, SLK 0.1 µg/mL: -73%
  % inhibition of CXCL8 expression (TNF + IL17A/A stimulation) in keratinocytes, SLK 1 µg/mL: -88%
[5]
  IC50: 13 pM
